Measurements taken from PMC7688639.

Key:
[1] = biological target: actin filaments (F-actin) polymerised from rabbit muscle actin (rabbit) (UniProt P68135); experiment: single-molecule TIRF binding kinetics (dwell times); as a1, in the presence of 200 nM HMM
[2] = biological target: actin filaments (F-actin) polymerised from rabbit muscle actin (rabbit) (UniProt P68135); experiment: single-molecule TIRF binding kinetics (dwell times); as a1, in the presence of 200 nM drebrin 1–300
[3] = biological target: actin filaments (F-actin) polymerised from rabbit muscle actin (rabbit) (UniProt P68135); experiment: single-molecule TIRF binding kinetics (dwell times); as a1, actin filaments co-polymerized with 5 µM biotin-phalloidin
[4] = biological target: actin filaments (F-actin) polymerised from rabbit muscle actin (rabbit) (UniProt P68135); experiment: single-molecule TIRF binding kinetics (dwell times); as a1, with 1 µM phalloidin added after the filaments had been tethered
[5] = biological target: actin filaments (F-actin) polymerised from rabbit muscle actin (rabbit) (UniProt P68135); experiment: single-molecule TIRF binding kinetics (dwell times); as a1, with 1 µM jasplakinolide added after the filaments had been tethered
[6] = biological target: actin filaments (F-actin) polymerised from rabbit muscle actin (rabbit) (UniProt P68135); experiment: single-molecule TIRF binding kinetics (dwell times); dual colour with 10 nM Atto-488-cofilin and Alexa-555-utrn (0.05–0.1 nM), 450 ms per frame; events far (>30 nm) from a cofilin binding event
[7] = biological target: actin filaments (F-actin) polymerised from rabbit muscle actin (rabbit) (UniProt P68135); experiment: single-molecule TIRF binding kinetics (dwell times); dual colour with 10 nM Atto-488-cofilin and Alexa-555-utrn (0.05–0.1 nM), 450 ms per frame; events near (<30 nm) a cofilin binding event; only τ1 fitted
[8] = biological target: actin filaments (F-actin) polymerised from rabbit muscle actin (rabbit) (UniProt P68135); experiment: single-molecule TIRF binding kinetics (on-rate); tethered actin filaments; frequency of binding events for a range of concentrations of actin-binding domain, linear regression of frequency against concentration
[9] = biological target: actin filaments (F-actin) polymerised from rabbit muscle actin (rabbit) (UniProt P68135); experiment: single-molecule TIRF binding kinetics (dwell times); actin filaments tethered to a PEG/biotin-PEG coverslip by streptavidin and biotin-phalloidin; labelled binding domain in solution at ~0.05–0.1 nM; 25 mM imidazole, 25 mM KCl, 4 mM MgCl2, 1 mM EGTA, 1 mM DTT, pH 7.4, 10 µg/mL beta casein; double exponential fit of the CDF, bleaching corrected

dwell time τ1 (first timescale) [1]: 0.4 s | dwell time τ1 (first timescale) [2]: 0.34 s | dwell time τ1 (first timescale) [3]: 0.41 s | dwell time τ1 (first timescale) [4]: 0.49 s | dwell time τ1 (first timescale) [5]: 0.47 s | dwell time τ1 (first timescale) [6]: 0.44 s | dwell time τ1 (first timescale) [7]: 0.57 s | kon [8]: 2.1e+06 M⁻¹ s⁻¹ | average dwell time (τav) [9]: 0.8 s | dwell time τ1 (first timescale) [9]: 0.42 s | ratio of the two dwell-time scales (τ2/τ1) [9]: 9.6
Substance: utrophin actin-binding domain Δ-nterm Q33A T36A (domain or fragment)
